Reference: paper PMC8233153, “Peters plus syndrome mutations affect the function and stability of human β1,3-glucosyltransferase” (The Journal of Biological Chemistry, 2021)

B1: B3GLCTΔREEL (human B3GLCT without REEL motif) (Homo sapiens) (protein)
chain: SEDTKKEVKQSQDLEKSGISRKNDIDLKGIVFVIQSQSNSFHAKRAEQLKKSILKQAADLTQELPSVLLLHQLAKQEGAWTILPLLPHFSVTYSRNSSWIFFCEEETRIQIPKLLETLRRYDPSKEWFLGKALHDEEATIIHHYAFSENPTVFKYPDFAAGWALSIPLVNKLTKRLKSESLKSDFTIDLKHEIALYIWDKGGGPPLTPVPEFCTNDVDFYCATTFHSFLPLCRKPVKKKDIFVAVKTCKKFHGDRIPIVKQTWESQASLIEYYSDYTENSIPTVDLGIPNTDRGHCGKTFAILERFLNRSQDKTAWLVIVDDDTLISISRLQHLLSCYDSGEPVFLGERYGYGLGTGGYSYITGGGGMVFSREAVRRLLASKCRCYSNDAPDDMVLGMCFSGLGIPVTHSPLFHQARPVDYPKDYLSHQVPISFHKHWNIDPVKVYFTWLAPSDEDKARQETQKGF
notes: secreted from pSecTag2/HygroC, C-terminal Myc-His6 tag kept; native signal peptide replaced by vector signal; C-terminal ER-retention motif REEL (last 4 of 498 residues) removed; forward primer starts near SEDTKKEV; HEK293T medium, Ni-NTA
B2: B3GLCTΔREEL (human B3GLCT without REEL motif) (Homo sapiens; Q457R) (protein)
chain: SEDTKKEVKQSQDLEKSGISRKNDIDLKGIVFVIQSQSNSFHAKRAEQLKKSILKQAADLTQELPSVLLLHQLAKQEGAWTILPLLPHFSVTYSRNSSWIFFCEEETRIQIPKLLETLRRYDPSKEWFLGKALHDEEATIIHHYAFSENPTVFKYPDFAAGWALSIPLVNKLTKRLKSESLKSDFTIDLKHEIALYIWDKGGGPPLTPVPEFCTNDVDFYCATTFHSFLPLCRKPVKKKDIFVAVKTCKKFHGDRIPIVKQTWESQASLIEYYSDYTENSIPTVDLGIPNTDRGHCGKTFAILERFLNRSQDKTAWLVIVDDDTLISISRLQHLLSCYDSGEPVFLGERYGYGLGTGGYSYITGGGGMVFSREAVRRLLASKCRCYSNDAPDDMVLGMCFSGLGIPVTHSPLFHQARPVDYPKDYLSHRVPISFHKHWNIDPVKVYFTWLAPSDEDKARQETQKGF
notes: as for B1
B3: B3GLCTΔREEL (human B3GLCT without REEL motif) (Homo sapiens; R337H) (protein)
chain: SEDTKKEVKQSQDLEKSGISRKNDIDLKGIVFVIQSQSNSFHAKRAEQLKKSILKQAADLTQELPSVLLLHQLAKQEGAWTILPLLPHFSVTYSRNSSWIFFCEEETRIQIPKLLETLRRYDPSKEWFLGKALHDEEATIIHHYAFSENPTVFKYPDFAAGWALSIPLVNKLTKRLKSESLKSDFTIDLKHEIALYIWDKGGGPPLTPVPEFCTNDVDFYCATTFHSFLPLCRKPVKKKDIFVAVKTCKKFHGDRIPIVKQTWESQASLIEYYSDYTENSIPTVDLGIPNTDRGHCGKTFAILERFLNHSQDKTAWLVIVDDDTLISISRLQHLLSCYDSGEPVFLGERYGYGLGTGGYSYITGGGGMVFSREAVRRLLASKCRCYSNDAPDDMVLGMCFSGLGIPVTHSPLFHQARPVDYPKDYLSHQVPISFHKHWNIDPVKVYFTWLAPSDEDKARQETQKGF
notes: as for B1
B4: B3GLCTΔREEL (human B3GLCT without REEL motif) (Homo sapiens; T179S) (protein)
chain: SEDTKKEVKQSQDLEKSGISRKNDIDLKGIVFVIQSQSNSFHAKRAEQLKKSILKQAADLTQELPSVLLLHQLAKQEGAWTILPLLPHFSVTYSRNSSWIFFCEEETRIQIPKLLETLRRYDPSKEWFLGKALHDEEATIIHHYAFSENPSVFKYPDFAAGWALSIPLVNKLTKRLKSESLKSDFTIDLKHEIALYIWDKGGGPPLTPVPEFCTNDVDFYCATTFHSFLPLCRKPVKKKDIFVAVKTCKKFHGDRIPIVKQTWESQASLIEYYSDYTENSIPTVDLGIPNTDRGHCGKTFAILERFLNRSQDKTAWLVIVDDDTLISISRLQHLLSCYDSGEPVFLGERYGYGLGTGGYSYITGGGGMVFSREAVRRLLASKCRCYSNDAPDDMVLGMCFSGLGIPVTHSPLFHQARPVDYPKDYLSHQVPISFHKHWNIDPVKVYFTWLAPSDEDKARQETQKGF
notes: as for B1
B5: B3GLCTΔREEL (human B3GLCT without REEL motif) (Homo sapiens; V245M) (protein)
chain: SEDTKKEVKQSQDLEKSGISRKNDIDLKGIVFVIQSQSNSFHAKRAEQLKKSILKQAADLTQELPSVLLLHQLAKQEGAWTILPLLPHFSVTYSRNSSWIFFCEEETRIQIPKLLETLRRYDPSKEWFLGKALHDEEATIIHHYAFSENPTVFKYPDFAAGWALSIPLVNKLTKRLKSESLKSDFTIDLKHEIALYIWDKGGGPPLTPVPEFCTNDMDFYCATTFHSFLPLCRKPVKKKDIFVAVKTCKKFHGDRIPIVKQTWESQASLIEYYSDYTENSIPTVDLGIPNTDRGHCGKTFAILERFLNRSQDKTAWLVIVDDDTLISISRLQHLLSCYDSGEPVFLGERYGYGLGTGGYSYITGGGGMVFSREAVRRLLASKCRCYSNDAPDDMVLGMCFSGLGIPVTHSPLFHQARPVDYPKDYLSHQVPISFHKHWNIDPVKVYFTWLAPSDEDKARQETQKGF
notes: as for B1

What follows are molecules tested against O-fucosylated TSR3 from human thrombospondin-1 (Fuc-O-TSR3) (human) (assay: not given). Conditions: not given.

“human B3GLCTΔREEL V245M (PTRPLS-like mutant) (from UniProt Q6Y288 1-498) (enzyme)” and “human B3GLCTΔREEL R337H (PTRPLS-like mutant) (from UniProt Q6Y288 1-498) (enzyme)” are within 1.5-fold of each other in K (half) (μM) for the acceptor substrate Fuc-O-TSR3 in the in vitro glucosyltransferase assay (UDP-Glo; allosteric sigmoidal fit): 6.64 µM for the first, 6.65 µM for the second.

“human B3GLCTΔREEL Q457R (PTRPLS-like mutant) (from UniProt Q6Y288 1-498) (enzyme)” and “human B3GLCTΔREEL T179S (PTRPLS-like mutant) (from UniProt Q6Y288 1-498) (enzyme)” are within 1.5-fold of each other in K (half) (μM) for the acceptor substrate Fuc-O-TSR3 in the in vitro glucosyltransferase assay (UDP-Glo; allosteric sigmoidal fit): 5.73 µM for the first, 8.04 µM for the second.

Molecule “human B3GLCT with the REEL motif removed (B3GLCTΔREEL), wild type (from UniProt Q6Y288 1-498) (enzyme)” has a K (half) (μM) for the acceptor substrate Fuc-O-TSR3 in the in vitro glucosyltransferase assay (UDP-Glo; allosteric sigmoidal fit) of 8.9 µM.

These molecules were tested on O=c1ccn([C@@H]2O[C@H](CO[P@@](=O)(O)O[P@@](=O)(O)O[C@H]3O[C@H](CO)[C@@H](O)[C@H](O)[C@H]3O)[C@@H](O)[C@H]2O)c(=O)[nH]1 (assay: UDP-Glo glycosyltransferase assay (UDP release, luminescence), Michaelis-Menten fit). Conditions: donor varied, acceptor Fuc-O-TSR3 (human thrombospondin-1 TSR3), 50 mM Tris/HCl pH 7.5, 37 °C, 20 min, no metal added.
Assay type: biochemical
Excerpt: UDP-Glo glycosyltransferase assay (UDP release, luminescence), Michaelis-Menten fit on B3GLCTΔREEL (human B3GLCT without REEL motif)

B1 and B2 are within 1.5-fold of each other in Km: 25.47 µM for the first, 17.39 µM for the second.

B3 and B4 are within 1.5-fold of each other in Km: 21.89 µM for the first, 20.94 µM for the second.

B5 gave a Km of 18.74 µM.

Going from B1 to B2, the Vmax falls from 0.0432 µmol/min/mg to 0.0236 µmol/min/mg.

Going from B3 to B4, the Vmax rises from 0.0277 µmol/min/mg to 0.0324 µmol/min/mg.

B5 was tested, and the Vmax was 0.0246 µmol/min/mg.

Going from B1 to B2, the kcat falls from 0.0403 s⁻¹ to 0.022 s⁻¹ (1.8-fold).

B3 and B4 are within 1.5-fold of each other in kcat: 0.0258 s⁻¹ for the first, 0.0303 s⁻¹ for the second.

In the case of B5, the kcat is reported as 0.023 s⁻¹.
